Biological target: COVID-2019-Spike-328-585 (RBD) (SARS-CoV-2), P0DTC2
Test: BLI; […] (HIS1K) […] (50 μM, 31 μM, and 8.8 μM); 30°C, PBS; 1:1 binding model; Octet HTX
Details: remark: other sources report otherwise

B1: DC-SIGN.Fc, Q9NNX6 (Fc fusion)
chain: QVSKVPSSISQEQSRQDAIYQNLTQLKAAVGELSEKSKLQEIYQELTQLKAAVGELPEKSKLQEIYQELTRLKAAVGELPEKSKLQEIYQELTWLKAAVGELPEKSKMQEIYQELTRLKAAVGELPEKSKQQEIYQELTRLKAAVGELPEKSKQQEIYQELTRLKAAVGELPEKSKQQEIYQELTQLKAAVERLCHPCPWEWTFFQGNCYFMSNSQRNWHDSITACKEVGAQLVVIKSAEEQNFLQLQSSRSNRFTWMGLSDLNQEGTWQWVDGSPLLPSFKQYWNRGEPNNVGEEDCAEFSGNGWNDDKCNLAKFWICKKSAASCSRDEEQFLSPAPATPNPPPA
Work on B1 yielded a Kd of 18.7 µM.
